Results: patent publication US20190389961A1 (INNATE PHARMA, published 2019)
Substitutions are numbered along the chain they refer to.

T1: human CD39 mutant 5 (human, UniProt P49961 1-510)
T1 construct: Expressed on Hek-293T cells; also called M5
T1 chain: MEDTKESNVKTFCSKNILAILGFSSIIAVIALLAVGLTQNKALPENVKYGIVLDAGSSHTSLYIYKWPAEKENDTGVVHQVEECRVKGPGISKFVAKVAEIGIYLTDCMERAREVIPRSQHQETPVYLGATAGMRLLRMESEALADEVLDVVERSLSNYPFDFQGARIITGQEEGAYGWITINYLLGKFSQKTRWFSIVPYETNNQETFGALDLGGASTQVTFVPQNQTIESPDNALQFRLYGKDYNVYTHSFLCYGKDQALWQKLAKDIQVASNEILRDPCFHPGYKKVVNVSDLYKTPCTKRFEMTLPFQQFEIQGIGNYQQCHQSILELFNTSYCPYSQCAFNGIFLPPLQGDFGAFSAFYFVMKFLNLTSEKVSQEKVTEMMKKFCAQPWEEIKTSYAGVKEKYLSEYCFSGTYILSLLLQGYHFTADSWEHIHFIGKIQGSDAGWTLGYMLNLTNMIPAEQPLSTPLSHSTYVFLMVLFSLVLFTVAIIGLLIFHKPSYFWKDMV

T2: human CD39 mutant 19 (human, UniProt P49961 1-510)
T2 construct: Expressed on Hek-293T cells; also called M19
T2 chain: T1 chain with A96Q, A99N, R138A, M139A, E142K, A143E, E147R

T3: human CD39 (vascular CD39, NTPDase1) expressed at the surface of cells (human, UniProt P49961 1-510)
T3 construct: also called huCD39; CHO-huCD39
T3 sequence: T1 chain with A96Q, A99N, A143E, E147R

T4: human CD39 mutant 15 (human, UniProt P49961 1-510)
T4 construct: Expressed on Hek-293T cells; also called M15
T4 chain: T1 chain with K87A, A96Q, A99N, E100A, D107A, A143E, E147R

T5: human CD39 mutant 11 (human, UniProt P49961 1-510)
T5 construct: Expressed on Hek-293T cells
T5 sequence: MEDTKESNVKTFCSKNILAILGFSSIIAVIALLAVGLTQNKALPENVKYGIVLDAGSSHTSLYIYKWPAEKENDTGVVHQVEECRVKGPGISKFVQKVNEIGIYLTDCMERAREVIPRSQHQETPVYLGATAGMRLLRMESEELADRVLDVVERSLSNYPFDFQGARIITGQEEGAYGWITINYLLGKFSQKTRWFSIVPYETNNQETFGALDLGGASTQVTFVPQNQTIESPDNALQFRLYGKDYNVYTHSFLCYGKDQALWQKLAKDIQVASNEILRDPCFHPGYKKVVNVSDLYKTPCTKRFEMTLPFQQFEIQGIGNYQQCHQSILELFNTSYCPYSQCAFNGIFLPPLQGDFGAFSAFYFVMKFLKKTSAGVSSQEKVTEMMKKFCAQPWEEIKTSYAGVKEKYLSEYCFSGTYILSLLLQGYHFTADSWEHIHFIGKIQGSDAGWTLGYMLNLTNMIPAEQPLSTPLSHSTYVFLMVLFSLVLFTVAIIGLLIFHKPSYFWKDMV

B1: antibody I-395 (antibody, V domains shown)
VH: EVQLQQSGPELVKPGASVRMSCKASGYTFTDYNMHWVKKNHGKGLEWIGYINPNNGGTTYNQKFKGKATLTVNTSSKTAYMELRSLTSEDSAVYYCTRGGTRFASWGQGTLVTVSA
VL: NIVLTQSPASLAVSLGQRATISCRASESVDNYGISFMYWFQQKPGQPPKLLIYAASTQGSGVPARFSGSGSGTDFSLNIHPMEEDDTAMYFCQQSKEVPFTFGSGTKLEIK
B2: antibody I-399 (antibody, V domains shown)
VH: PVQLQQPGAEVVMPGASVKLSCKASGYTFTSFWMNWMRQRPGQGLEWIGEIDPSDFYTNSNQRFKGKATLTVDKSSSTAYMQLSSLTSEDSAVYFCARGDFGWYFDVWGTGTSVTVSS
VL: EIVLTQSPTTMTSSPGEKITFTCSASSSINSNYLHWYQQKPGFSPKLLIYRTSNLASGVPTRFSGSGSGTSYSLTIGTMEAEDVATYYCQQGSSLPRTFGGGTKLEIK
B3: antibody I-396 (antibody, V domains shown)
VH: EVQLQQSGAELVKPGASVKLSCIVSGFNIKDTYINWVKQRPEQGLEWIGRIDPANGNTKYDPKFQGKATMTSDTSSNTAYLHLSSLTSDDSAVYYCARWGYDDEEADYFDSWGQGTTLTVSS
VL: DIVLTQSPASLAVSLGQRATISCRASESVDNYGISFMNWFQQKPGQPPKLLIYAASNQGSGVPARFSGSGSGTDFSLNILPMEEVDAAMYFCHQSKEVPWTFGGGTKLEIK

Legend:
human CD39 mutant 5 [1] = target: T1, human CD39 mutant 5; assay: flow cytometry on Hek-293T cells expressing CD39 mutant 5 (panel M5)
Procedure: (§1) In order to define the epitopes of the further anti-CD39 antibodies of Example 5, they were tested for loss of binding to the panel of CD39 mutants as described in Example 1 and Table 1. Mutants were transfected in Hek-293T cells, as shown in the table 1, using numbering of SEQ ID NO: 1.Dose-ranges of test antibodies (10-2.5-0.625-0.1563-0.0391-0.0098-0.0024-0.0006 μg/ml) are tested on the 20 generated mutants by flow cytometry.

human CD39 mutant 19 [2] = target: T2, human CD39 mutant 19; assay: flow cytometry on Hek-293T cells expressing CD39 mutant 19 (panel M19)
Procedure: (§2) Mutants were transfected in Hek-293T cells, as shown in the table 1, using numbering of SEQ ID NO: 1. […] Mutant 19 includes substitutions at residues R138, M139 and E142.
as §1

human CD39 mutant 5 [3] = target: T1, human CD39 mutant 5; assay: flow cytometry on Hek-293T cells expressing CD39 mutant 5 (panel M5); unstained (US) median 8,98; antibody concentration not shown
Procedure: as §2, §1

[4] = target: T3, human CD39 (vascular CD39, NTPDase1) …; assay: flow cytometry on Hek-293T cells expressing wild-type CD39 (panel WT); unstained (US) median 10,3; antibody concentration not shown
Procedure: as §2, §1

human CD39 mutant 15 [5] = target: T4, human CD39 mutant 15; assay: flow cytometry on Hek-293T cells expressing CD39 mutant 15 (panel M15); unstained (US) median 8,98; antibody concentration not shown
Procedure: as §2, §1

human CD39 mutant 19 [6] = target: T2, human CD39 mutant 19; assay: flow cytometry on Hek-293T cells expressing CD39 mutant 19 (panel M19); unstained (US) median 8,98; antibody concentration not shown
Procedure: as §2, §1

human CD39 mutant 5 [7] = target: T1, human CD39 mutant 5; assay: flow cytometry, Hek-293T cells expressing the mutant
Procedure: as §1

human CD39 mutant 11 = target: T5, human CD39 mutant 11; assay: as above
Procedure: as §1

human CD39 mutant 15 [8] = target: T4, human CD39 mutant 15; assay: as above
Procedure: as §1

human CD39 mutant 19 [9] = target: T2, human CD39 mutant 19; assay: as above
Procedure: as §1

human CD39 mutant 15 [10] = target: T4, human CD39 mutant 15; assay: flow cytometry on Hek-293T cells expressing CD39 mutant 15 (panel M15)
Procedure: as §1

| Binder | binding result (human CD39 mutant 5 [1]) | binding result (human CD39 mutant 19 [2]) | Median : Comp-Alexa Fluor 647-A (human CD39 mutant 5 [3]) | Median : Comp-Alexa Fluor 647-A [4] | Median : Comp-Alexa Fluor 647-A (human CD39 mutant 15 [5]) | Median : Comp-Alexa Fluor 647-A (human CD39 mutant 19 [6]) | binding result (human CD39 mutant 5 [7]) | binding result (human CD39 mutant 11) | binding result (human CD39 mutant 15 [8]) | binding result (human CD39 mutant 19 [9]) | binding result (human CD39 mutant 15 [10]) |
| --- | --- | --- | --- | --- | --- | --- | --- | --- | --- | --- | --- |
| B1 | no binding | no binding | 52.6 | 4240 | 5750 | 15.4 |  |  |  |  |  |
| B2 |  |  |  |  |  |  | binds | no binding (tested: dose range up to 10 µg/ml) | binds | binds |  |
| B3 |  |  | 8190 | 4340 | 35.9 | 8890 |  |  |  |  | no binding |
